Results reported in the supplement of paper PMC11196671.

Legend:
[1] = MHET released, HPLC; higher = more MHET released; extreme values may be limits of the assay; conditions: 24 h
Procedure: (§1)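 Purified PET hydrolases, 2.5 ug enzyme on 3.5 mg amorphous PET film (aFilm) or crystalline PET powder (cryPow) in 0.5 mL of 50 mM buffer (NaCitrate pH 4.5/5.5, NaPhosphate 6.5/7.5, glycine 8.5/9.5) at 60 or 70 C with shaking for 24 h. Total aromatic product by UV-Vis (260/280 nm, blank-subtracted, normalised per mg enzyme) and individual TPA, MHET, BHET concentrations by UHPLC-DAD at 240 nm; duplicate reactions.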

[2] = BHET released, HPLC; higher = more BHET released; extreme values may be limits of the assay; conditions: 24 h
Procedure: as §1

[3] = PET hydrolysis product formed (TPA+MHET+BHET, UV-Vis) per mg enzyme (mmol/mg enzyme); higher = more PET depolymerisation activity; extreme values may be limits of the assay; conditions: 24 h
Procedure: as §1

[4] = as above; conditions: 2 h
Procedure: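 Purified PET hydrolases (His-SUMO cleaved, E. coli C41(DE3) small-scale expression), 2.5 ug enzyme on 3.5 mg amorphous PET film (aFilm) or crystalline PET powder (cryPow) in 0.5 mL of 50 mM buffer (NaCitrate pH 4.5/5.5, NaPhosphate 6.5/7.5, glycine 8.5/9.5) at 60 or 70 C with shaking for 2 h. Soluble aromatic products (TPA+MHET+BHET) were quantified by UV-Vis at 260/280 nm, blank-subtracted against the no-enzyme control, and normalised per mg enzyme; duplicate reactions.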

QDNPYERGPDPTEDSIEAIRGPFSVATERVSSFASGFGGGTIYYPRETDEGTFGAVAVAPGFTASQGSMSWYGERVASHGFIVFTIDTNTRLDAPGQRGRQLLAALDYLVERSDRKVRERLDPNRLAVMGHSMGGGGSLEATVMRPSLKASIPLTPWHLDKTWGQVQVPTFIIGAELDTIAPVSTHAKPFYESLPSSLPKAYMELCGATHFAPNIPNTTIAKYVISWLKRFVDEDTRYSQFLCPNPTDRAICEYRSTCPY [Cut190*SS]
Conditions | BHET released, [2] [mM] | MHET released, [1] [mM] | PET hydrolysis product formed, [3] | PET hydrolysis product formed, [4]
PET substrate: aFilm, 60 °C, pH 4.5 | 0 | 0 | 0 | 0
PET substrate: aFilm, 60 °C, pH 5.5 | 0 | 0.00789 | 0 | 0
PET substrate: aFilm, 60 °C, pH 6.5 | 0.00205 | 0.04 | 0.0256 | 0
PET substrate: aFilm, 60 °C, pH 7.5 | 0.0117 | 0.208 | 0.154 | 0.00672
PET substrate: aFilm, 60 °C, pH 8.5 | 0 | 0.0945 | 0.0616 | 0
PET substrate: aFilm, 60 °C, pH 9.5 | 0 | 0.155 | 0.162 | 0.0106
PET substrate: aFilm, 70 °C, pH 4.5 | 0 | 0 | 0 | 0
PET substrate: aFilm, 70 °C, pH 5.5 | 0 | 0 | 0 | 0
PET substrate: aFilm, 70 °C, pH 6.5 | 0 | 0 | 0 | 0
PET substrate: aFilm, 70 °C, pH 7.5 | 0.00861 | 0.234 | 0.191 | 0.00376
PET substrate: aFilm, 70 °C, pH 8.5 | 0 | 0.00747 | 0 | 0
PET substrate: aFilm, 70 °C, pH 9.5 | 0 | 0.0894 | 0.169 | 0.0215
PET substrate: cryPow, 60 °C, pH 4.5 | 0 | 0 | 0 | 0
PET substrate: cryPow, 60 °C, pH 5.5 | 0.00623 | 0.0526 | 0.0274 | 0
PET substrate: cryPow, 60 °C, pH 6.5 | 0.00767 | 0.1 | 0.0533 | 0.0096
PET substrate: cryPow, 60 °C, pH 7.5 | 0.0058 | 0.202 | 0.0968 | 0.0258
PET substrate: cryPow, 60 °C, pH 8.5 | 0 | 0.171 | 0.0772 | 0.0105
PET substrate: cryPow, 60 °C, pH 9.5 | 0 | 0.11 | 0.0813 | 0.0109
PET substrate: cryPow, 70 °C, pH 4.5 | 0 | 0 | 0 | 0
PET substrate: cryPow, 70 °C, pH 5.5 | 0 | 0.00708 | 0 | 0
PET substrate: cryPow, 70 °C, pH 6.5 | 0 | 0.0193 | 0.00998 | 0
PET substrate: cryPow, 70 °C, pH 7.5 | 0 | 0.0639 | 0.031 | 0.00904
PET substrate: cryPow, 70 °C, pH 8.5 | 0 | 0.02402 | 0.0112 | 0
PET substrate: cryPow, 70 °C, pH 9.5 | 0 | 0.00359 | 0.0149 | 0.00521
